From patent US12016910B2, “Antigenic peptides for prevention and treatment of cancer” (ENTEROME S.A., priority 2018, dated 2024) come the findings set out here.

In one assay the target is T1, HLA-A*0201 (Homo sapiens, UniProt P04439, D140Y/D185E/D98H/E176V/E277Q/G131W/G231S/I119V/I121R/I166T/I218V/L300P/L318F/N151K/N90K/P208A/P217A/Q86G/Q94H/R138H/R169H/T345S).
T1 construct: the human tumoral cell T2 which expresses the HLA-A*0201 molecule; endogenous in cells; host or cells: T2 cells (human, TAP1/2 negative)
Nature of the assay: Affinity of the peptide to T2 cell line: HLA-A2 labelling by FACS, relative to HIV pol 589-597. The format is binding. The note with it: for binding affinity to HLA-A*0201 compared with the other peptides tested (in words): Examples 2, 7, 8, 9; for binding to HLA-A*0201 as % of maximum HIV pol 589-597 binding activity: Example 8. The source says: The experimental protocol is similar to the one that was validated for peptides presented by the HLA-A*0201 (Tourdot et al., A general strategy to enhance immunogenicity of low-affinity HLA-A2.1-associated peptides: implication in the identification of cryptic tumor epitopes. Eur J Immunol. 2000 December; 30(12):3411-21). Affinity measurement of the peptides is achieved with the human tumoral cell T2 which expresses the HLA-A*0201 molecule, but which is TAP1/2 negative and incapable of presenting endogenous peptides.
T2 cells (2.10^5 cells per well) are incubated with decreasing concentrations of peptides from 100 μM to 1.5625 μM in a AIMV medium supplemented with 100 ng/μl of human β2m at 37° C. for 16 hours. Cells are then washed two times and marked with the anti-HLA-A2 antibody coupled to PE (clone BB7.2, BD Pharmagen).
The analysis is achieved by FACS (Guava Easy Cyte).
A2. Solubilisation of Peptides
Each peptide is solubilized by taking into account the amino acid composition. […] Other peptides are resuspended in water or PBS pH7.4.
The experimental protocol, materials and methods correspond to those outlined in Example 2, with the only difference that the above mentioned (poly)peptides were used.
(In general: In flow cytometry, cells or beads pass a laser one at a time.)

The test system of assay [1] is T cell responses (IFNγ-producing splenocytes). Put plainly: ELISPOT-IFNγ assay on splenocytes of vaccinated HLA-A2 humanized mice. To be noted: 100 μg vacc-pAg + 150 μg T13L + IFA s.c. d0 and d14; splenocytes d21 restimulated with vacc-pAg 10 μM. The format is in vivo, HLA-A2 (CB6F1-Tg(HLA-A*0201/H2-Kb)A*0201) mice. The source says: Briefly, HLA-A2 humanized mice (HLA-A2 (CB6F1-Tg(HLA-A*0201/H2-Kb)A*0201) were assigned randomly (based on mouse sex and age) to experimental groups, wherein each group was immunized with a specific vaccination peptide (vacc-pAg) combined to a common helper peptide (h-pAg T13L; sequence: […]; SEQ ID NO: 860; Bhasin M, Singh H, Raghava GP (2003) MHCBN: a comprehensive database of MHC binding and non-binding peptides. Bioinformatics 19: 665-666) (as outlined in Table 5 below). The vacc-pAg were compared in couples (group 1 vs. group 2, group 1 vs. group 3; group 1 vs. group 4; group 5 vs. group 6; group 7 vs. group 8; group 9 vs. group 10). Thereby, both native and optimized versions of a single peptide were compared in each wave.
The peptides were provided as follows: • vacc-pAg: BIRC5-H, BIRC5-B1, BIRC5-B2, BIRC5-B3, FOXM1-H2, FOXM1-B2, EZH2-H2, EZH2-B2, 1L13RA2-H and IL13RA2-B; all produced and provided at a 4 mg/ml (4 mM) concentration; • h-pAg: T13L; Eurogentec batch 1713334 re-suspended in pure distilled water at a 10 mg/mL concentration
The animals were immunized on day 0 (d0) with a prime injection, and on d14 with a boost injection. Each mouse was injected s.c. at tail base with 100 μL of an oil-based emulsion that contained: • 100 μg of vacc-pAg (25 μL of 4 mg/mL stock per mouse); • 150 μg of h-pAg (15 μL of 10 mg/mL stock per mouse); • 10 μL of PBS to reach a total volume of 50 μL (per mouse); • Incomplete Freund's Adjuvant (IFA) added at 1:1 (v:v) ratio (50 μL per mouse).
A separate emulsion was prepared for each vacc-pAg, as follows: IFA reagent was added to the vacc-pAg/h-pAg/PBS mixture in a 15 mL tube and mixed on vortex for repeated cycles of 1 min until forming a thick emulsion.
Seven days after the boost injection (i.e. on d21), the animals were euthanized and the spleen was harvested. Splenocytes were prepared by mechanical disruption of the organ followed by 70 μm-filtering and Ficoll density gradient purification.
The splenocytes were immediately used in an ELISPOT-IFNγ assay (Table 6). Experimental conditions were repeated in triplicates, using 2*10^5 total splenocytes per well, and were cultured in presence of vacc-pAg (10 μM), lonomycin (0.1 μM) plus PMA (1 μM) or medium-only to assess for their capacity to secrete IFNγ. The commercial ELISPOT-IFNγ kit (Diaclone Kit Mujrine IFNγ ELISpot) was used following the manufacturer's instructions, and the assay was performed after about 19 h of incubation.
Spots were counted on a CTL ELISpot reader. Data plotting and statistical analysis were performed with the Prism-5 software (GraphPad Software Inc.).
The data were then normalized as a number of specific spots (the average counts obtained in the ‘medium only’ condition being subtracted) per 50*10^3 total T cells.
The individual average values (obtained from the triplicates) were next used to plot the group average values. As the functional capacity of T cells might vary from individual to individual, the data were also expressed as the percentage of the ionomycin plus PMA response per individual (see FIG. 8).

Assay [2] deals with T-cells (IFN-secreting splenocytes). Put plainly: Immunogenicity and cross-reactivity, IFN ELISpot on splenocytes of immunized HHD DR3 mice. The format is in vivo. To be noted: for immunogenicity: immune response after challenge with the vaccination peptide or the human corresponding peptide (IFN ELISpot): 100 μg peptide + 150 μg helper peptide (DR3) + IFA s.c. days 0 and 14, splenocytes day 21. As for the experimental part: Concanavalin A (ConA) was used as a positive control.
The antigenic peptide of the invention BIRC5-B1 (SEQ ID NO: 32) and the corresponding human peptide BIRC5-H (SEQ ID NO: 593) were tested in distinct groups of male and female HHD DR3 mice expressing human HLA-A2 and HLA-DR3 MHC and lacking the murine H-2 class I and class II MHCs. Groups of 5 mice (male and female) were subcutaneously injected on days 0 and 14 with 100 μg of BIRC5-B1 or BIRC5-H, 150 μg of helper peptide (DR3) and IFA. On day 21, the mice were euthanized and splenocytes were prepared and stimulated in vitro with BIRC5-B1 or the human peptide BIRC5-H to assess their capacity to secrete IFN—as assessed by ELISpot. ConA was used as a positive control.
The antigenic peptide of the invention FOXM1-B2 (SEQ ID NO: 220) and the corresponding human peptide FOXM1-H2 (SEQ ID NO: 674) were tested in distinct groups of male and female HHD DR3 mice expressing human HLA-A2 and HLA-DR3 MHC and lacking the murine H-2 class I and class II MHCs. Groups of 5 mice (male and female) were subcutaneously injected on days 0 and 14 with 100 μg of FOXM1-B2 or FOXM1-H2, 150 μg of helper peptide (DR3) and IFA. On day 21, the mice were euthanized and splenocytes were prepared and stimulated in vitro with FOXM1-B2 or the human corresponding peptide FOXM1-H2 to assess their capacity to secrete IFN—as assessed by ELISpot. ConA was used as a positive control

The test system is the same in assay [3]. Nature of the assay: Immunogenicity and cross-reactivity, confirmation in HHD DR1 mice. Type of assay: in vivo. The note with it: HHD DR3 and HHD DR1 mice, summary of Examples 4 to 6.

As to YTLGEFLYI [BIRC5-B2], the “Concentration of peptide that induces 20% of HLA-A2 expression” value with HLA-A*0201 (Example 2, Table 4) came out at 14.7 µM. Moreover, the “T cell responses in the ELISPOT-IFNγ assay compared to the respective human reference epitope” value in assay [1] is recorded as “improved T cell responses”. As to AVFRVLIPV [EZH2-B2], in the assay with HLA-A*0201 (Example 2, Table 4), the “Concentration of peptide that induces 20% of HLA-A2 expression” value is 8.3 µM. Further, the “T cell responses in the ELISPOT-IFNγ assay compared to the respective human reference epitope” value in assay [1] is reported as “improved T cell responses”. With LMLGEFLKL [2M, reference compound], the “Concentration of peptide that induces 20% of HLA-A2 expression” value with HLA-A*0201 (Example 9, Table 9) was 2.87 µM.

In the case of “FLDSLGFST (listed as Homo sapiens) [TYMS H2, reference compound]”, in the assay with HLA-A*0201 (Example 2, Table 4), the “Concentration of peptide that induces 20% of HLA-A2 expression” value was 9.5 µM. Consider SMEELLWFV [TYMS B], for which, in the assay with HLA-A*0201 (Example 2, Table 4), the “Concentration of peptide that induces 20% of HLA-A2 expression” value turned out to be 1.1 µM. The same measure, in the same setting: under “VLEELLWFI (listed as Homo sapiens) [TYMS H, reference compound]” stands 4.1 µM. Same read-out and setting: under RLSSYLVEI [FOXM1-B] stands 46.7 µM. Regarding GLLGEFLQI [BIRC5-B3], in the assay with HLA-A*0201 (Example 2, Table 4), the “Concentration of peptide that induces 20% of HLA-A2 expression” value turned out to be 22.9 µM. Moreover, the “T cell responses in the ELISPOT-IFNγ assay compared to the respective human reference epitope” value in assay [1] is recorded as “improved T cell responses”. “RVSSYLVPI (listed as Homo sapiens) [FOXM1-H, reference compound]”: the “Concentration of peptide that induces 20% of HLA-A2 expression” value with HLA-A*0201 (Example 2, Table 4) was 37.6 µM. As to FLPFGFILV [IL13RA2-B], the “Concentration of peptide that induces 20% of HLA-A2 expression” value amounted to 2.9 µM with HLA-A*0201 (Example 2, Table 4) and 2.9 µM with HLA-A*0201 (Example 8, Table 8). Further, in the assay with HLA-A*0201, the “binding affinity to HLA-A*0201 compared with the other peptides tested (in words)” value was “considerably higher binding affinity”. In addition, the “T cell responses in the ELISPOT-IFNγ assay compared to the respective human reference epitope” value in assay [1] was “improved T cell responses”. Take “LMDLSTTPL (listed as Homo sapiens) [FOXM1-H2, reference compound]”: the “Concentration of peptide that induces 20% of HLA-A2 expression” value in the assay with HLA-A*0201 (Example 2, Table 4) came to 12.6 µM. Besides, the “immunogenicity: immune response after challenge with the vaccination peptide or the human corresponding peptide (IFN ELISpot)” value (“immunogenicity: immune response” below) in assay [2] is given as “does not induce immune response”. With FLDSLGFSL [TYMS B2], the “Concentration of peptide that induces 20% of HLA-A2 expression” value in the assay with HLA-A*0201 (Example 2, Table 4) came to 2.7 µM. YLLSAALTI [CHI3L1 B3]: in the assay with HLA-A*0201 (Example 2, Table 4), the “Concentration of peptide that induces 20% of HLA-A2 expression” value amounted to 8.6 µM. The same measure, in the same setting: the same measure for FLVEDETVI [EZH2-B]: 8.8 µM. As to “1A9V: comparative peptide (Eguchi et al., 2006): SEQ ID NO: 691 with tryptophan 1 substituted by alanine, isoleucine 9 by valine (ALPFGFILV; comparative peptide) [reference compound]”, the “Concentration of peptide that induces 20% of HLA-A2 expression” value with HLA-A*0201 (Example 8, Table 8) turned out to be 36.5 µM. Besides, in the assay with HLA-A*0201, the “binding affinity to HLA-A*0201 compared with the other peptides tested (in words)” value is reported as “lowest affinity of the peptides tested”. As to “WLPFGFILI (listed as Homo sapiens) [IL13RA2-H, reference compound]”, in assay [2], the “immunogenicity: immune response” value is listed as “does not induce an immune response”. As for ILDEAYVRV [EGFR-B], in the assay with HLA-A*0201 (Example 2, Table 4), the “Concentration of peptide that induces 20% of HLA-A2 expression” value came out at 3.1 µM.

For the substance “SMFRVLIGT (listed as Homo sapiens) [EZH2-H2, reference compound]”, the “Concentration of peptide that induces 20% of HLA-A2 expression” value with HLA-A*0201 (Example 2, Table 4) was 39.2 µM.

On to “FMVEDETVL (listed as Homo sapiens) [EZH2-H, reference compound]”, for which the “Concentration of peptide that induces 20% of HLA-A2 expression” value in the assay with HLA-A*0201 (Example 2, Table 4) worked out at 13.3 µM.

Consider “LTLGEFLKL (listed as Homo sapiens) [BIRC5-H, reference compound]”, for which the “Concentration of peptide that induces 20% of HLA-A2 expression” value with HLA-A*0201 (Example 2, Table 4) was found to be 53.0 µM; with HLA-A*0201 (Example 9, Table 9), 95.9 µM. Moreover, the “immunogenicity: immune response” value in assay [2] is “does not induce any immune response”. On to LLLSAALSV [CHI3L1 B], for which the “Concentration of peptide that induces 20% of HLA-A2 expression” value in the assay with HLA-A*0201 (Example 2, Table 4) was determined as 3.6 µM. FLPFGFILPV [IL13RA2-L]: the “Concentration of peptide that induces 20% of HLA-A2 expression” value in the assay with HLA-A*0201 (Example 2, Table 4) was 3.2 µM; in the assay with HLA-A*0201 (Example 8, Table 8), 3.2 µM. Moreover, the “binding affinity to HLA-A*0201 compared with the other peptides tested (in words)” value with HLA-A*0201 was “considerably higher binding affinity”. Besides, the entries for the “binding to HLA-A*0201 as % of maximum HIV pol 589-597 binding activity” value with HLA-A*0201 (at 6.25 μM), in the assay with HLA-A*0201 (at 25 μM) and with HLA-A*0201 (at 100 μM) were 43%, 96% and 69%, respectively. Besides, in assay [2], the “immunogenicity: immune response” value is “strongly immunogenic”. Further, the “immune response against the corresponding human peptide (cross-reactivity)” value in assay [2] (same immunisation) is on record as “able to drive an effective immune response against the corresponding human peptide”. The immune responses induced entry in assay [3] is “induced strong immune responses”.
